From the nanobody polyreactivity screen of Harvey et al. (2022)

Experiment: yeast display, Sf9 membrane polyspecificity reagent, FACS + sequencing; frameworks hold sequencing errors
In short: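 Polyreactivity labels are assigned by the sorting gate from which each nanobody was recovered. The gates were low and high (top ~1%), set on anti-HA fluorescence for expression and streptavidin fluorescence for reagent binding. Before sorting, galactose-induced (36–48 hours) yeast display cells were stained for 1 hour at 4 °C with 10% biotinylated, detergent-solubilized Sf9 membrane reagent.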

Sequence | polyreactivity (PSR sort gate)
QVQLQESGGGLVQAGGSLRLSCAASGTFSPLPAMGWYRQAPGKERECVAGNDTGAITNYADSVKGRFTISRDNAKNTVYLQMNSLKPDDTAVYYCAVFPAAYVYYVRYYTYWGQGTQVTVCS | low polyreactivity
QVQLQESGGGLVQAGGSLRLSCAASGTIFRFRYMGWHRQAPGKERELVAGINGGTTTYYADSVIGRFTISRDNAKNTVYLQMNSLKPEDTAVYYCAADVNYYQHRLYYWGQGTQVTVSS | low polyreactivity
QVQLQESGGGLVQAGGSLRLSCAASGTIFRISDMGSYRQAPGKDLEFVAAITYGANTYYADSGKGRFTISRDNAKNTVYLQMNSLKPEDTAVYYCAVPPVKETILDYWGQGTQVTVSS | low polyreactivity
QVQLQESGGGLVQAGGSLRLSCAASGTIFTARFMGWYRQAPGKERELVATITDGGNTNHADSVKGRFTISRDNAKNTVYLQMNSLKPEDAAVDYCAAGEVDNDTLLYWGQGSQVTVSS | low polyreactivity
QVQLQESGGGLVQAGGSLRLSCAASGTIFWLWAMGWYCQAPGKERELVASISSGGTTYHADSVKGRFTISRDNAKNTVYLQMNSLKPEDTAVYYSAAFYVATAKLGFWGQGSQVTVSS | low polyreactivity
QVQLQESGGGLVQAGGSLRLSCAASGTISDSGLMGWYRQAPGKERELVAGISSGGITNYADSVKGRFTISRDNAKNTVYLQMKSLKPEDTAVYWGQGTQVTVSS | low polyreactivity
QVQLQESGGGLVQAGGSLRLSCAASGTISDSGLMGWYRQAPGKERELVAGISSGGITNYADSVKGRFTISRDNAKNTVYMQMNSLKPEDTAVYWGQGSQVTVSS | low polyreactivity
QVQLQESGGGLVQAGGSLRLSCAASGTISPLPAMGWYRQAPGKEREFVAGIDTGAITNYADSVKGRFTISRDNAKNTVYLQMISLKPEDTAVYYCAVFPAAYYYYERFYTYWGQGTQVTVSS | low polyreactivity
QVQLQESGGGLVQAGGSLRLSCAASGTISPLPAMGWYRQAPGKEREFVAGIDTGAITNYADSVKGRFTISRDNAKNTVYLQMNSLKPEDTPVYYCAATFYYSGHDDYWGQGTQVPVSS | low polyreactivity
QVQLQESGGGLVQAGGSLRLSCAASGTISQEDWMGLYRQAPGKEREFVAAIGLGSNTNYADSLKGRFTISRDNAKNTVYLQMNSLKPEDTAVYYCAVSVWQYSDHVYRGQGTQVTVSS | low polyreactivity
QVQLQESGGGLVQAGGSLRLSCAASGTITVLYKMGWFRQAPGKEREFVASINYGTSTYYADSVKGRFTVSRDSAKNTVYLQMNSLKPEDTAVYFCSAAFRWQDVYRYWGQGTQVTVSS | low polyreactivity
QVQLQESGGGLVQAGGSLRLSCAASGYIFPTAIMGWYLQATGKERKLVAAINPGSNTYYADSVKGRFTFSRDNAKNTVYLQMYSLKPEDAAVYYCAVSIWLEGTLDYWGQGTQVTVSS | low polyreactivity
QVQLQESGGGLVQAGGSLRLSCAASGYIPLAQTIGSYRQAPGKEREFVASIALGSSTYYTDSVKGSFTISRDNAKTTVYLQMNSLKPEDTAVYYCAARVGACYAHDYWGQGTQVTVSS | low polyreactivity
QVQLQESGGGLVQAGGSLRLSCAASGYISDGYVMGWYRQAPGKEREFVATISGGTTAYYADSVKGRFTISRDNAKNTVYLQMNSLKPEDTAVYYCAAETSYYWDYDYWGHGTQVTVSS | high polyreactivity
QVQLQESGGGLVQAGGSLRLSCAASGYISHADEMGWYRQAPGKVHELVASISNGGSTNYADSVKGRFTISRDNAKNTVYLQMNSLKSEDTAVYYCAAWTGQVDIHYYWGQGTQVTVSS | low polyreactivity
QVQLQESGGGLVQAGGSLRLSCAASGYISLAQTIGWYRQAPGTEREFVASIALGSSTYYTDSVKGSFTISRDNAKTTVYLQMNSLKPEDTAVYYCAARVGASYAHDYWGQGTQVTVSS | low polyreactivity
QVQLQESGGGLVQAGGSLRLSCAASGYISLAQTKGWYRQEPGKEREFVASIALGSSTYYTDSVKGSFTISRDNAKTTVYLQMNSVKPEDTAVYYCAARVGASYAHDFWGQGTQVTVSS | low polyreactivity
QVQLQESGGGLVQAGGSLRLSCAASGYISQSSVMGWYRQAPGKEREFVASISYGATTYYADSVKGRFTISRDNAKNTVYLQTNSPKPEDTAVYYCAVWVKRGFSHRYWGQGTQVTVSS | high polyreactivity
QVQLQESGGGLVQAGGSLRLSCAASGYISSWYPKGWYRQAPGQEREFVATIAPGATTYYADSVKGRFTMSRDYAKNTVYLQMNSLKPEDTAVYYCAAGPENNDFYSYWGQGTQVTVSS | low polyreactivity
QVQLQESGGGLVQAGGSLRLSCAASGYNSFSGYMGRYRQAPGKEREFVDSITPGRSTYYADSVKGRFTISRDNAEITVYLQMNSLKPEDTGVYYCAADDSRTEQHDYWGQGTQVTVSS | high polyreactivity
QVQLQESGGGLVQAGGSLRLSCAASGYNSHADEMGWYRQAPGKEHELVASISNGGSTNYADSVKGRFTISRDNANNTVYLQMNSLKSEDTAVYYCADWTGEVDIHYYWGQGTQVTVSS | low polyreactivity
QVQLQESGGGLVQAGGSLRLSCAATGSIYHLHIMCWYRKAPGKERESVAAISYGTSTYYADSVKGRFTICRDNAKNTVYLQMNSPKPDDTAVYYCAALFLVYKHHHYWGEGTQVTVSS | low polyreactivity

Sequence | polyreactivity (PSR sort gate)
QVQLQESGGGLVQAGGSLRLSCAPSGTITVLYKMGWFRQAPGKEGEFVASINYGTSTYYADSVKGRFTVSRDRAKNTVYLQMNSLKPEDTAVYYCAAAYRWQDVYRYWGQGTQVTVSS | low polyreactivity
QVQLQESGGGLVQAGGSLRLSCASSGSIFKVVDKGLYRQAPAKEREFVATIGEGGNTYYADSVKGRFTISRDNAKNTVYLQMNSLKPEDTAVYFYAVVLGTSYRYTYWGQGTQVTVSS | low polyreactivity
QVQLQESGGGLVQAGGSLRLSCAVSGTIFFPQDKGWYRQAPGREREYGAAIAEGTSTYYADSVKGRFTISRDNAKNTVYPQMYSLKPEDTEVNYCAAYRSTPQQFLYWGQGTQVTVSS | high polyreactivity
QVQLQESGGGLVQAGGSLRLTCAASGNISVTGFMGCYRQAPGKERELVASIGIGGTTYYADSVKGRFSISRDNAKNTVYLEMHSLKPEDTAVYYCAARYLYYAYSYWGQGTQVTVSS | low polyreactivity
QVQLQESGGGLVQAGGSLRLTCAASGSIFDGFNMGWYRQAPGKDREFVDAISYGASTYYADSVKGRFTVSRDNAINSVYLQMNSLKPEDTALYYWAVYDELYHVLVYWGRGTQVTVSS | low polyreactivity
QVQLQESGGGLVQAGGSLRLTCAASGTIFRFRYMGWPRQAPGKERELVAGINGGTTTYYADSVIGRFTISRDNAKNTVYLQRNSLKPDDTAVYNCAAGASRLTYYDYWGQGTQVTVSS | low polyreactivity
QVQLQESGGGLVQAGGSLRLWCAASRNISGSSDLGWYHQAPGKEREFVASITSGGTTYYADSVKGRFTISRDNAKNTVYLQMNSLKPEDTAVYYCAVGDPADAEFGYWGQGTQVTVSS | low polyreactivity
QVQLQESGGGLVQAGGSLRMSCAASGNIFDADIMGWYRQAPGKERELVASITDGRRTNYADSVKGRYTISRDSEKNTVYLQMNSLKPEDTAVYYCAAIAYPVVPTYFDYDSDYFHWGQGTQVTVIS | high polyreactivity
QVQLQESGGGLVQAGGSLRMSCAASGTIVSEANMGWYRQAPGKERELVATIGQGSTTNYADSVKGRFTISRDNAKNTVYLQMNSLKPEETAVYYCAVVTVDPVGFVYWGQGTQVTVSS | low polyreactivity
QVQLQESGGGLVQAGGSLRPRCAAGGTIFVSVNMGWYRHAPGEELEFVASITQGATTNYADSLIGRFTISRDNAKNTVYLQMNCQNQEDTAVYYCAVHESGGITFTYWGQGTQVTVSS | high polyreactivity
QVQLQESGGGLVQAGGSLRPSCAASGSISDGVPMGWYRQAPGEERELVATTVLGATTNYADSVKGRFTISRGNAKNTVYLQMNSLKPEETEVYYCAAPLRYDKGFSYWGQGTQVTVSS | low polyreactivity
QVQLQESGGGLVQAGGSLRQSYAASGYIFPSLAMGWYRQAPGKEREFVAAIGRGSTNNYADSVKGRFTISRDNAKNTAYQQMISLKPEDTAVYYCAAAASPLTRHLYWGQGTQVSVSS | low polyreactivity
QVQLQESGGGLVQAGGSMRLSCAASGSISELRPMGWYRQAPGKERELVAGISTGGSTNYADSVKGRFTISRDNAKNTVYLQMNSLKPEDTAVYYCAAALSNVRNVRSPYDYWGQGTQVTVSS | high polyreactivity
QVQLQESGGGLVQAGGTLRLSCAANGNISYSNPMGWYRQPPGKEREFVASINPGSTTNYMDSVKGRFTISRDNAKNTVYLQMNSLKPEDTAVYYCNSVFFKSRQGQMYYWGQGSQVTVSS | high polyreactivity
QVQLQESGGGLVQASGSIFHEPNMGWHRQAPGKERELVATISDGAITNYADSVKGRFTISRDNAKNTVYLQMNSLKPEDTAVYYCAVVVHLYTDLRYWGQDTQVTVSS | high polyreactivity
QVQLQESGGGLVQASGSIFHEPNMGWYRQAPGKERELVAGISSGANTYYADSVKGRFTISRDNAKNTVYLQMNSLKPEDTAVYHCAVVVHLYTDLRYWGQDTQVTVSS | high polyreactivity
QVQLQESGGGLVQAVASLRLSCEASVSISSLDYMGWYRQASGKERELVAAIDNGSTTYYADSVKGRLTISRDNAKYTVYLQMNSLKPEDTAVYFCAAVRGRGGTHAYWGQGTQVTVSG | low polyreactivity
QVQLQESGGGLVQAVGSLRLSCAASGNISDYYDMGWYRQAPGKERKFVAGIDFGAITNYADSVKGRFTISRDNAKNTEYLQMSSLKPEDTAVYYCAAGVYDWYAYDYWGQGTQVTVSS | high polyreactivity
QVQLQESGGGLVQAVGSLRLSCAASGYISSWYPMGWYRQAPGKEREFVATIAPGATTYYADSVKGRFTISRDYAKKTVYLQMNSLKPEDTAVYYCAAGPEKNDFYSYWGQGTQVTVSS | low polyreactivity
QVQLQESGGGLVQEGGSLRLSCASSGNISPPADMGWYRQAPGKERELVASMGTGGTTNYADSVKGRFTISRDNAKNTVYLQMNSLKPDDTAVYYCAAVRYEYNPYDYWGQGTQVTVSS | low polyreactivity
QVQLQESGGGLVQGGGSLRLSCAASGSIYRSWYMGWYRQAPGKERELVASITEGATTNYAYSVKAALPLAAITRNTVYLQMDSMKPEDTAVYYRAASFGSTYDLVYWGQGTQVTVSS | high polyreactivity
QVQLQESGGGLVQPGGSLRLSCAATGTISDSGLMGWYRQAPGKERELVSGISSGGITQYADSVNGRFTISRDNAKNTVYLQMNSLKPEDTAVYWGQGTQVTVSS | low polyreactivity
